{
  "source": "patent US20190367620A1",
  "about": "(Merck KGaA, published 2019)",
  "binders": {"B1": {"name": "mAb #A08 (antibody, V domains shown)", "VH": "EVQLQESGPGLVKPSGTLSLTCAVSGGSISSNNWWSWVRQPPGKGLEWIGEIYHSGSTSYNPSLKSRVTISVDKSKNQFSLKLNSVTAADTAVYYCARGTDWFDPWGQGTLVTVSS", "VL": "QAVLTQPPSVSVAPGQTARITCGGNNIGSESVHWYQQKPGQAPVLVVYDDSDRPSGIPERFSGSNSGNTATLTISRVEAGDEADYYCQVWDSTSDHRVFGGGTKLTVL", "notes": "Only variable domains are tied to the name mAb #A08 (hit); also called #A08 hit; mAb #08"}},
  "assay_in_all_cases": "SPR; free energy change relative to wild-type D2",
  "key": {"[1]": {"target": "T1, FGFR1 D2 point mutant K52A (human, UniProt P11362 22-254)", "T1 chain": "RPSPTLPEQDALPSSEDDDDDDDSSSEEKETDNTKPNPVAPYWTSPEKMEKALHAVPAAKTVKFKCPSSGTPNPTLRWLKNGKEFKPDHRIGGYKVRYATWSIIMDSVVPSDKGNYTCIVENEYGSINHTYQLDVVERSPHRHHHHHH", "method": "(§1) Binding affinities of anti-FGFR1 antibodies to FGFR1 were measured by Surface Plasmon Resonance (SPR) using a GE Healthcare BIAcore 4000 instrument as follows. Goat anti-human Fc antibody (Jackson ImmunoResearch Laboratories #109-005-098) was first immobilized on BIAcore carboxymethylated dextran CM5 chip using direct coupling to free amino groups following the procedure described by the manufacturer. Antibodies were then captured on the CM5 biosensor chip to achieve approximately 200 response units (RU). Binding measurements were performed using the running HBS-EP+ buffer. A 2-fold dilution series of His-tagged FGFR1 proteins were injected at a flow rate of 30 μl/min at 25° C. Association rates (kₒₙ, per mol/s) and dissociation rates (koff, per s) were calculated using a simple 1:1 Langmuir binding model (Biacore 4000 Evaluation Software). The equilibrium dissociation constant (KD, mol) was calculated as the ratio of koff/kₒₙ.\n(§2) To obtain a finer, residue-level mapping of the epitope and to complement the HD exchange data, molecular modelling and manual inspection of the crystal structure of FGFR1 [(Beenken et al. 2012); PDB record 3OJV] was used to select solvent exposed residues within and around the epitope identified by HD exchange. The selected residues were mutated either to alanine (large to small) or to glycine if the selected residue was alanine. In total 35 point mutants were designed, expressed and purified in HEK cells, and tested for binding to mAb #A08 using surface plasmon resonance as described in Example 1.8. The affinity of the antibody for wild-type and each mutant was determined and used to calculate the contribution of each epitope residue to the binding energy.\n(§3) Variant were compared to wild-type D2. The change in the Gibbs free energy of binding of mutant relative to the wild-type D2 construct (ΔΔGₘᵤₜ) was derived from the ratio of the wild-type and mutant KD."}, "[2]": {"target": "T2, FGFR1 D2 point mutant S102A (human, UniProt P11362 22-254)", "T2 chain": "T1 chain with A52K, S102A", "method": "as §1, §2, §3"}, "[3]": {"target": "T3, FGFR1 D2 point mutant T100A (human, UniProt P11362 22-254)", "T3 chain": "T1 chain with A52K, T100A", "method": "as §1, §2, §3"}, "[4]": {"target": "T4, FGFR1 D2 point mutant A99G (human, UniProt P11362 22-254)", "T4 chain": "T1 chain with A52K, A99G", "method": "as §1, §2, §3"}, "[5]": {"target": "T5, FGFR1 D2 point mutant R97A (human, UniProt P11362 22-254)", "T5 chain": "T1 chain with A52K, R97A", "method": "as §1, §2, §3"}, "[6]": {"target": "T6, FGFR1 D2 point mutant A58G (human, UniProt P11362 22-254)", "T6 chain": "T1 chain with A52K, A58G", "method": "as §1, §2, §3"}, "[7]": {"target": "T7, FGFR1 D2 point mutant A55G (human, UniProt P11362 22-254)", "T7 chain": "T1 chain with A52K, A55G", "method": "as §1, §2, §3"}, "[8]": {"target": "T8, FGFR1 D2 point mutant I91A (human, UniProt P11362 22-254)", "T8 chain": "T1 chain with A52K, I91A", "method": "as §1, §2, §3"}, "Human FGFR1 D2-His6": {"target": "T9, Human FGFR1 D2-His6 (human, UniProt P11362 22-254)", "T9 construct": "also called D2 domain; F3FR1c-D2", "T9 sequence": "T1 chain with A52K", "method": "as §1, §2, §3"}, "[9]": {"target": "T10, FGFR1 D2 point mutant E47A (human, UniProt P11362 22-254)", "T10 chain": "T1 chain with E47A, A52K", "method": "as §1, §2, §3"}},
  "note": "Where a chain is given by its changes, count along the chain named.",
  "data": [
    {"binder": "B1", "values": [
      {"measurement": "ΔΔGmut", "setting": "[1]", "result": 0.11, "unit": "kcal/mol"},
      {"measurement": "ΔΔGmut", "setting": "[2]", "result": -0.13, "unit": "kcal/mol"},
      {"measurement": "ΔΔGmut", "setting": "[3]", "result": 0.12, "unit": "kcal/mol"},
      {"measurement": "ΔΔGmut", "setting": "[4]", "result": -0.05, "unit": "kcal/mol"},
      {"measurement": "ΔΔGmut", "setting": "[5]", "result": 1.83, "unit": "kcal/mol"},
      {"measurement": "ΔΔGmut", "setting": "[6]", "result": 1.44, "unit": "kcal/mol"},
      {"measurement": "ΔΔGmut", "setting": "[7]", "result": 0.07, "unit": "kcal/mol"},
      {"measurement": "ΔΔGmut", "setting": "[8]", "result": 0, "unit": "kcal/mol"},
      {"measurement": "ΔΔGmut", "setting": "Human FGFR1 D2-His6", "result": 0, "unit": "kcal/mol"},
      {"measurement": "ΔΔGmut", "setting": "[9]", "result": 0.17, "unit": "kcal/mol"}
    ]}
  ]
}
